According to patent publication EP4450093A1, “CLEAVABLE IMMUNE CELL ENGAGERS” (Synaffix B.V., priority 2023, dated 2024):

Biological target: IL-15 receptor on the IL-15 cells of the IL-15 bioassay (Promega, cat.# JA2015) (mouse cell line)
Assay: cell-based or functional assay

## trastuzumab (Herceptin), non-modified antibody
  Fold induction, IL-15 bioassay: 0.9 fold
